From paper PMC4933900, “Defined enzyme cocktail from the anaerobic fungus Orpinomyces sp. strain C1A effectively releases sugars from pretreated corn stover and switchgrass” (Scientific Reports, 2016)

What was measured:
[1] = target: T1, EG5 (Pecoramyces ruminantium, UniProt A0A1B1JH60); test: endoglucanase assay, CellG3 kit, 2-chloro-4-nitrophenol release; type: biochemical; details: printed BDL (below detection limit 500 nM); Lineweaver-Burk extrapolation 0.000003999 mM
T1 construct: whole CDS (nt 1-1251 of transcript; protein length 417) cloned; codon-optimised synthetic gene in pET28a(+) NdeI/XhoI, E. coli, purified
Excerpt: endoglucanase assay, CellG3 kit, 2-chloro-4-nitrophenol release on EG5

[2] = substrate: O=[N+]([O-])c1ccc(O[C@@H]2O[C@H](CO)[C@@H](O)[C@H](O)[C@H]2O)cc1; test: purified protein; details: 0.1 M sodium acetate buffer, 15 min; pH and temperature of kinetics not stated
[3] = substrate: O=[N+]([O-])c1ccc(O[C@@H]2O[C@H](CO)[C@@H](O[C@@H]3O[C@H](CO)[C@@H](O)[C@H](O)[C@H]3O)[C@H](O)[C@H]2O)cc1; test: cellobiohydrolase assay, p-nitrophenol release; type: biochemical, Pecoramyces ruminantium; details: 0.1 M sodium acetate buffer, 15 min; pH and temperature of kinetics not stated
[4] = substrate: O=[N+]([O-])c1ccc(O[C@@H]2O[C@H](CO)[C@@H](O[C@@H]3O[C@H](CO)[C@@H](O[C@@H]4O[C@@H]5COC(c6ccccc6)O[C@H]5[C@H](O)[C@H]4O)[C@H](O)[C@H]3O)[C@H](O)[C@H]2O)c(Cl)c1; test: endoglucanase assay, CellG3 kit, 2-chloro-4-nitrophenol release; type: biochemical, Pecoramyces ruminantium; details: pH and temperature of kinetics not stated
Excerpt: endoglucanase assay, CellG3 kit, 2-chloro-4-nitrophenol release on Cel48

[5] = substrate: O=[N+]([O-])c1ccc(O[C@@H]2OC[C@@H](O)[C@H](O)[C@H]2O)cc1; test: beta-xylosidase assay, p-nitrophenol release; type: biochemical, Pecoramyces ruminantium; details: 0.1 M sodium acetate buffer, 15 min; pH and temperature of kinetics not stated

O=[N+]([O-])c1ccc(O[C@@H]2O[C@H](CO)[C@@H](O[C@@H]3O[C@H](CO)[C@@H](O[C@@H]4O[C@@H]5COC(c6ccccc6)O[C@H]5[C@H](O)[C@H]4O)[C@H](O)[C@H]3O)[C@H](O)[C@H]2O)c(Cl)c1 (some centres unmarked) [CellG3]
Km [1]: < 0.5 µM

B1: BGL1 (Pecoramyces ruminantium) (protein)
chain: IVKPAADAAADVASDAEVVASDEENPLDNGEDSADDTPKGKLPSDFKWGAATAAYQVEGAWNEEGRGESVWDHFTHLYPKNVESGDRSNKDSTNGNVACDSYHKFDEDIKMMKIMNANHYRFSISWSRLFPDGQAKKVDGEWNVNEAGAQYYDMVIDTLLDNDIIPLATLYHWDLPYALHEKYGGWLDYHSQFDFAKYAEFCFERYGDRVKGWITINEPWVNCVAGYKNGPGKAPYRCTGEAPRKLANDTTGLDLEGGCSYEIGPSQYTKDSEVLPANRPPQKLEDVWCSHNILLGHAQAVKVYREKFQKEQKGLIGITIDGEAQIPWEEPGMSEEEYENNKKYANLAAEFRIGWYSDPVMFGDYPESVKQRNGKDMPVFTDEEKKLLKGSSSDFLGWNTYTSHWAAQVKNEDGSYVEPPTDEEASYDNSKRDMWDDNCKGRGDGWTCIPPTLGSQAGSSWNTKYGPTIRVGLNWFSKRYEGIIKNGIIITENGCAQPNYKVSRANDQVTLDYWKSIGKEEFADTYDEDIIEDESDLEGTLIHDTYRIDWYKQYLENLRLAYVEDGVDVRGYMAWSLVDNFEWENGYETRFGMTYIDFYNDKDLKRVPKDSLTFLGQWYLDNVEQE
Km [2]: 164 µM
Vmax [2]: 5.41 µmol/min/mg

B2: Cel48 (Pecoramyces ruminantium) (protein)
chain: MPSIRTALTLLGASAVIAAPTKRANDAYAQRVIDTYNAVTGNGSYRSDYFSPENVPYHSVETMMVEAPDQGHESVSETYSFWVWLEAINGKMTGNYDGVNTAWSYLEKHIIPDSKNQPGMSRYNSSSPATYAPEDDDITNYPSKLIFQDGLVGQDPIAAELQQAYGTWDIYAMHWIIDGDNWYGYGQQGDGTTKPSFINTFQRGPSESAWKTVPHPCWEEFKWGGRNGFLDLFTVDNSYAKQWRYTAAPDADARAIQAAYFAYIWAKEDGQNLSSLAGKAAKLGDYLRYAHYDKYFKKIGNCIGYQQCQAGSGKNSAHYLISWYFSWGGGLQGDWSWRIGSSHTHTGYQNPLAAWVLSTESAFKPKGSTAVKDWATSLDRQLELFRWLQAAEGCIAGGATNSWQGHYAQPPSDITSFYGMYYDWQPVYHDPPSNNWTGMQGWGMERVCSLYFLSGNEKAGKVCQDWAKWVKNNVRVNGSEVVHATNFSWSGNPDEWKPANFNKSGLNASLHGTVSTEGIDIGSLASIIKGLMWVSMKDGDQEGIDLAVQVMDAIEQYRDDHGYGVEEAREDYAKFNEEVYIPSGWTGKNAQGANIRNGVKFIDIRPKYKQDPDWPQIENFLNGGEAPRFTYHRFWAQTEIAVANGLISIYGLSDGSGVVPTKPGSCAAAIKAQGYKCCSANCEVVYTDADGDWGVENDEWCGCGGGEPECPAAITNQGYPCCSTCGTVYYTDGDGDWGVENGDWCGMPTDC
notes: whole CDS (nt 87-2342 of transcript; protein length 751) cloned; codon-optimised synthetic gene in pET28a(+) NdeI/XhoI, E. coli, purified
Km [3]: 8980 µM
Vmax [3]: 0.357 µmol/min/mg
Km [4]: 30100 µM
Vmax [4]: 0.048 µmol/min/mg

B3: XYL11 (Pecoramyces ruminantium) (protein)
chain: GSGTSGTADFPYAKVYIGNQQNQPSYQPTTTRNNSQPTSPATGGSSGEICSASGHSGESTKVTSNKVGSINGIGYELWADSGNNSATFYSDGSFSCTFQNAKDYLCRSGLSFDSTKTHSQIGHLYADFKLVKQGISNVDYSYVGIYGWTRSPLVEFYIVDNWLSQYRPGDWVGNKKHGDFTIDGAQYTVYENTRTGPSIDGNTQFKQYFSIRKTARDCGTIDITAHFQQWEKLGMTMGKMHEAKVLGEAGSNGSGTSGTADFPYAKVYTGS
Km [2]: 216 µM
Vmax [2]: 0.28 µmol/min/mg

B4: Cel6A (Pecoramyces ruminantium) (protein)
chain: PKSSGGSTTTPVNPGDVDATPGDQLTLSGNPFSGVEFYINPYYVAEVDGAIAQMTDSSLKAKAEKMKTYSNAIWLDTIKNMNSWLESNLKGALAQQTGSKKVLTVFVVYDLPGRDCHALASNGELLANSSDAQRYKTEYIDVIEKHLKTYKSQPVALIVEPDSLANLVTNLESTPACRDSESYYLDGHAYLIKKLGVLPHVAMYLDIGHAFWLGWDDNREKAGKVYAKVIQSGSPGKVRGFTDNVSNYTPWEDPTLSRGPDTEWNPCPDEKRYLEAMHKDFKAAGISSVYFVSDTSRNGHKTDRKHPGEWCNQTGVGIGARPQASPISGMDYLDAFYWIKPLGESDGTSDESAVRFDGYCGHETAMKPAPEAGQWFQKHFEQGLENANPPL
notes: whole CDS (nt 2-1177 of transcript; protein length 391) cloned; codon-optimised synthetic gene in pET28a(+) NdeI/XhoI, E. coli, purified
Km [3]: 228 µM
Vmax [3]: 3.27 µmol/min/mg

B5: BGL3 (Pecoramyces ruminantium) (protein)
chain: TWEEADAKAREWCSDLTNEEKIALITGRENMTGVCVGSIDPIERKGFKGLCLQDGPAGVRFAKGTATSWQASINTAATFDRTLLRKVGEAQGNEFYQRGINVALAPSMGIQRAPAAGRIFESYGEDPFYVGQCGLEVLKGIQSQGVIANAKHYIANDQENNRGASTSNVPEQALWEVYMEPFYRTVVEGEAGTVMASYNAINGTYSTQNKRLLTDYLKGKLGFKGFVMSDWWAIFDVEKSFGNGTDMNMPGGKYWGPDYVGDSFWGEHIQECIDNGVFPQERLDDAVLRIIRTLYKLDQMDDYPEVNLYVDTNTKENAALNRKVGADSNVLLKNADNILPIKKSKKVKKIAVIGKDSMPPTLCEDMKCANGTLPLGWGSGTTDFKYVVDPLSAITKRAKKSKISVVSYGEDDAKKAAKVAKKADVAIVFVQADSGEEYITVEGNAGDRLNLDLWHGGNELIEAVAAVNKNTIVVIHAPGPVNVPFLDKVKGIIFAGLPGQETGNAITDVLFGDVNPSGHLPYTWAPREDYPTDVKYEPEYPDGGEKMTVYDYNEGLFVGYRWFDKKEIEPTFAFGYGLSYTTFEFSDLEATMEDDGLYVSLTVTNTGKVAGAAVPMIFLSFPESVKDYPIRLFKGFDKVMLKAGESKETTIFIDAHGLSYFDVEKMEYVRPKDGEFTVYAGSNARDLPLNVKVLANGDEI
notes: about residues 22-721; pET28a(+) NdeI/XhoI, codon-optimised, E. coli, purified
Km [2]: 275 µM
Vmax [2]: 1.55 µmol/min/mg
Km [5]: 50600 µM
Vmax [5]: 0.068 µmol/min/mg

B6: EG5 (Pecoramyces ruminantium) (protein)
chain: TLLGLAIIGTKAMRNISSKELVKELTIGWSLGNTLDATCFETLNYAKDQTASETCWGNVKTTQELYYKLNDLGFNTFRIPTTWSGHFGDGPDYKISEAWMKRVHEIVDYALNADGYAILNIHHETWNHAFQKNLESAKKILVAIWKQIAAEFADYDEHLIFEGMNEPRKVGDAAEWNGGDYEGWNFVNEMNDLFVKTIRATGGNNALRHLMIPTYAACVNDGAINNFRFPSGDDKVIVSLHSYSPYNFALNNGAGAISNFNDGSEIDWVMNTINSSFISKGIPVIIGEFGAMNRNNEADREKWAEYYIKKATSLGIPCVIWDNGYFEGEGERFGLIDRKSLNVVYPRLVNGLMKGLGDKKPKTTKVRTTTTTTIQVQPTNNNDCFSTKLGYDCCNGCEVFYTDNDGKWGVENGNWCG
Km [2]: 84000 µM
Vmax [2]: 0.45 µmol/min/mg
